According to patent publication US20140087995A1 (published 2014):
Numbered stars: 1 amine (or outer) side, 2 acyl side, 3 side chain; on linkers, the order of the positions; unused ones are H or OH. Bridge positions count the residues as written; N and C are the ends. Side chains are listed from the residue outwards. Ends that are not written are not given here. * marks the point of attachment. C20 diacid = O=C(O)CCCCCCCCCCCCCCCCCCC(=O)*; C18 diacid = O=C(O)CCCCCCCCCCCCCCCCC(=O)*; γGlu = O=C(O)[C@H](CCC(=O)[*:2])N[*:1]

T1: rat calcitonin receptor (rat, UniProt P32214 25-516)
T1 construct: whole, on cells; Used as membranes prepared from the transfected cells (Assay VIII); also called rCTR; rat calcitonin (a) receptor
T1 sequence (looked up): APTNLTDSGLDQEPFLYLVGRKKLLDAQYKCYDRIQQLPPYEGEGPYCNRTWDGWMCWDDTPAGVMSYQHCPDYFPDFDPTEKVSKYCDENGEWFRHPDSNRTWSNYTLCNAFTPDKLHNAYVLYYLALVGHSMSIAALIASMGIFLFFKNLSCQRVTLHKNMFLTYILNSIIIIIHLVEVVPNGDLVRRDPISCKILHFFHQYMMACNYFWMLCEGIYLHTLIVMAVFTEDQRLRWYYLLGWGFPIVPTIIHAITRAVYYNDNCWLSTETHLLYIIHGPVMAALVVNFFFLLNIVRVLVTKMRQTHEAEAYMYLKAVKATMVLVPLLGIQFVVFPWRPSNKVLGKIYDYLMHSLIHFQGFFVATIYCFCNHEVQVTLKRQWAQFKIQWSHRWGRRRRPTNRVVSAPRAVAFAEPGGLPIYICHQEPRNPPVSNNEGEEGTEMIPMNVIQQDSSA

T2: human calcitonin receptor (human, UniProt P30988 25-474)
T2 construct: whole, on cells; Used as membranes prepared from the transfected cells (Assay VII); also called hCTR; hCT
T2 sequence (looked up): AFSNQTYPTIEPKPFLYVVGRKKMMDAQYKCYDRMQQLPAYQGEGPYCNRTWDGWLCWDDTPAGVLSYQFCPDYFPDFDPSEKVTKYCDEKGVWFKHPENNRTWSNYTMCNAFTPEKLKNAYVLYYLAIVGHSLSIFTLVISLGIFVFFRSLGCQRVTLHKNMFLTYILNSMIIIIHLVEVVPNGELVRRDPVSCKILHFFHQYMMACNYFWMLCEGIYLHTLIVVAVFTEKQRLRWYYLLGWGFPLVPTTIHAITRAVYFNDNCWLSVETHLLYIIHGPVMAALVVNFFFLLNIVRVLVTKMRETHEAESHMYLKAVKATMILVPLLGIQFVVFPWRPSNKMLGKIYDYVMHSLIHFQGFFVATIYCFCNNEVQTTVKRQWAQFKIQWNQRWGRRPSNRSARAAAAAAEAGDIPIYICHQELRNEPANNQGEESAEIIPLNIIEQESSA

T3: rat amylin receptor (rat calcitonin receptor + rat RAMP 3) (rat, UniProt P32214 25-516; Q9JJ73 23-147)
T3 construct: whole, on cells; Used as membranes prepared from the transfected cells (Assay VI); also called rAmylin-R; rat amylin 3(a) receptor
T3 sequence (looked up) 1: T1 sequence (looked up)
T3 sequence (looked up) 2: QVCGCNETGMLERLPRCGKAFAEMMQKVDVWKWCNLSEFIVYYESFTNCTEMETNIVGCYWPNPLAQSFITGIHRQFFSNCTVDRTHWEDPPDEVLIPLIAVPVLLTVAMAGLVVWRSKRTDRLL

B1: N^ε1-[(4S)-4-carboxy-4-(17-carboxyheptadecanoylamino)butanoyl]-[Arg17,Pro21,Pro27,His34]-h-amylin (peptide)
peptide: K([γGlu-C18 diacid])CNTATCATQRLANFLRHSSPNFGAIPSSTNVGHNTY-NH2
modifications: disulfide 2-7; N-terminus assumed
SMILES: CC[C@H](C)[C@H](NC(=O)[C@H](C)NC(=O)CNC(=O)[C@H](Cc1ccccc1)NC(=O)[C@H](CC(N)=O)NC(=O)[C@@H]1CCCN1C(=O)[C@H](CO)NC(=O)[C@H](CO)NC(=O)[C@H](Cc1c[nH]cn1)NC(=O)[C@H](CCCNC(=N)N)NC(=O)[C@H](CC(C)C)NC(=O)[C@H](Cc1ccccc1)NC(=O)[C@H](CC(N)=O)NC(=O)[C@H](C)NC(=O)[C@H](CC(C)C)NC(=O)[C@H](CCCNC(=N)N)NC(=O)[C@H](CCC(N)=O)NC(=O)[C@@H](NC(=O)[C@H](C)NC(=O)[C@@H]1CSSC[C@H](NC(=O)[C@@H](N)CCCCNC(=O)CC[C@H](NC(=O)CCCCCCCCCCCCCCCCC(=O)O)C(=O)O)C(=O)N[C@@H](CC(N)=O)C(=O)N[C@@H]([C@@H](C)O)C(=O)N[C@@H](C)C(=O)N[C@@H]([C@@H](C)O)C(=O)N1)[C@@H](C)O)C(=O)N1CCC[C@H]1C(=O)N[C@@H](CO)C(=O)N[C@@H](CO)C(=O)N[C@H](C(=O)N[C@@H](CC(N)=O)C(=O)N[C@H](C(=O)NCC(=O)N[C@@H](Cc1c[nH]cn1)C(=O)N[C@@H](CC(N)=O)C(=O)N[C@H](C(=O)N[C@@H](Cc1ccc(O)cc1)C(N)=O)[C@@H](C)O)C(C)C)[C@@H](C)O
notes: not restated for each compound
B2: N^ε1-[(4S)-4-carboxy-4-(19-carboxynonadecanoylamino)butanoyl]-[Asp14,Arg17,Pro21,Pro27,Pro34,Arg35]-h-amylin (peptide)
peptide: K([γGlu-C20 diacid])CNTATCATQRLADFLRHSSPNFGAIPSSTNVGPRTY-NH2
modifications: disulfide 2-7; N-terminus assumed
SMILES: CC[C@H](C)[C@H](NC(=O)[C@H](C)NC(=O)CNC(=O)[C@H](Cc1ccccc1)NC(=O)[C@H](CC(N)=O)NC(=O)[C@@H]1CCCN1C(=O)[C@H](CO)NC(=O)[C@H](CO)NC(=O)[C@H](Cc1c[nH]cn1)NC(=O)[C@H](CCCNC(=N)N)NC(=O)[C@H](CC(C)C)NC(=O)[C@H](Cc1ccccc1)NC(=O)[C@H](CC(=O)O)NC(=O)[C@H](C)NC(=O)[C@H](CC(C)C)NC(=O)[C@H](CCCNC(=N)N)NC(=O)[C@H](CCC(N)=O)NC(=O)[C@@H](NC(=O)[C@H](C)NC(=O)[C@@H]1CSSC[C@H](NC(=O)[C@@H](N)CCCCNC(=O)CC[C@H](NC(=O)CCCCCCCCCCCCCCCCCCC(=O)O)C(=O)O)C(=O)N[C@@H](CC(N)=O)C(=O)N[C@@H]([C@@H](C)O)C(=O)N[C@@H](C)C(=O)N[C@@H]([C@@H](C)O)C(=O)N1)[C@@H](C)O)C(=O)N1CCC[C@H]1C(=O)N[C@@H](CO)C(=O)N[C@@H](CO)C(=O)N[C@H](C(=O)N[C@@H](CC(N)=O)C(=O)N[C@H](C(=O)NCC(=O)N1CCC[C@H]1C(=O)N[C@@H](CCCNC(=N)N)C(=O)N[C@H](C(=O)N[C@@H](Cc1ccc(O)cc1)C(N)=O)[C@@H](C)O)C(C)C)[C@@H](C)O
notes: as for B1
B3: N^ε1-[(4S)-4-carboxy-4-(19-carboxynonadecanoylamino)butanoyl]-[Glu14,Arg17,Pro21,Pro27,Arg34,Glu35]-h-amylin (peptide)
peptide: K([γGlu-C20 diacid])CNTATCATQRLAEFLRHSSPNFGAIPSSTNVGRETY-NH2
modifications: disulfide 2-7; N-terminus assumed
SMILES: CC[C@H](C)[C@H](NC(=O)[C@H](C)NC(=O)CNC(=O)[C@H](Cc1ccccc1)NC(=O)[C@H](CC(N)=O)NC(=O)[C@@H]1CCCN1C(=O)[C@H](CO)NC(=O)[C@H](CO)NC(=O)[C@H](Cc1c[nH]cn1)NC(=O)[C@H](CCCNC(=N)N)NC(=O)[C@H](CC(C)C)NC(=O)[C@H](Cc1ccccc1)NC(=O)[C@H](CCC(=O)O)NC(=O)[C@H](C)NC(=O)[C@H](CC(C)C)NC(=O)[C@H](CCCNC(=N)N)NC(=O)[C@H](CCC(N)=O)NC(=O)[C@@H](NC(=O)[C@H](C)NC(=O)[C@@H]1CSSC[C@H](NC(=O)[C@@H](N)CCCCNC(=O)CC[C@H](NC(=O)CCCCCCCCCCCCCCCCCCC(=O)O)C(=O)O)C(=O)N[C@@H](CC(N)=O)C(=O)N[C@@H]([C@@H](C)O)C(=O)N[C@@H](C)C(=O)N[C@@H]([C@@H](C)O)C(=O)N1)[C@@H](C)O)C(=O)N1CCC[C@H]1C(=O)N[C@@H](CO)C(=O)N[C@@H](CO)C(=O)N[C@H](C(=O)N[C@@H](CC(N)=O)C(=O)N[C@H](C(=O)NCC(=O)N[C@@H](CCCNC(=N)N)C(=O)N[C@@H](CCC(=O)O)C(=O)N[C@H](C(=O)N[C@@H](Cc1ccc(O)cc1)C(N)=O)[C@@H](C)O)C(C)C)[C@@H](C)O
notes: as for B1
B4: N^ε1-[(4S)-4-carboxy-4-(19-carboxynonadecanoylamino)butanoyl]-[Glu14,Arg17,Pro21,Pro27,His35]-h-amylin (peptide)
peptide: K([γGlu-C20 diacid])CNTATCATQRLAEFLRHSSPNFGAIPSSTNVGSHTY-NH2
modifications: disulfide 2-7; N-terminus assumed
SMILES: CC[C@H](C)[C@H](NC(=O)[C@H](C)NC(=O)CNC(=O)[C@H](Cc1ccccc1)NC(=O)[C@H](CC(N)=O)NC(=O)[C@@H]1CCCN1C(=O)[C@H](CO)NC(=O)[C@H](CO)NC(=O)[C@H](Cc1c[nH]cn1)NC(=O)[C@H](CCCNC(=N)N)NC(=O)[C@H](CC(C)C)NC(=O)[C@H](Cc1ccccc1)NC(=O)[C@H](CCC(=O)O)NC(=O)[C@H](C)NC(=O)[C@H](CC(C)C)NC(=O)[C@H](CCCNC(=N)N)NC(=O)[C@H](CCC(N)=O)NC(=O)[C@@H](NC(=O)[C@H](C)NC(=O)[C@@H]1CSSC[C@H](NC(=O)[C@@H](N)CCCCNC(=O)CC[C@H](NC(=O)CCCCCCCCCCCCCCCCCCC(=O)O)C(=O)O)C(=O)N[C@@H](CC(N)=O)C(=O)N[C@@H]([C@@H](C)O)C(=O)N[C@@H](C)C(=O)N[C@@H]([C@@H](C)O)C(=O)N1)[C@@H](C)O)C(=O)N1CCC[C@H]1C(=O)N[C@@H](CO)C(=O)N[C@@H](CO)C(=O)N[C@H](C(=O)N[C@@H](CC(N)=O)C(=O)N[C@H](C(=O)NCC(=O)N[C@@H](CO)C(=O)N[C@@H](Cc1c[nH]cn1)C(=O)N[C@H](C(=O)N[C@@H](Cc1ccc(O)cc1)C(N)=O)[C@@H](C)O)C(C)C)[C@@H](C)O
notes: as for B1

target: T1, rat calcitonin receptor; assay: SPA competition binding, displacement of 125I-calcitonin from membranes of BHK tk'ts 13 cells transfected with rat calcitonin receptor (Assay VIII)

Row | IC50 | Binder
1 | 47 nM | B1
2 | 58.5 nM | B2
3 | 86.1 nM | B3
4 | 26.3 nM | B4
5 | 5.43 nM | K([γGlu-C20 diacid])CNTATCATQRLAEFLRHSSPNFGAIPSSTNVGPHTY-NH2 (disulfide 2-7, not restated for each compound)

target: T1, rat calcitonin receptor; assay: ratio of IC50 on rat calcitonin receptor (Assay VIII) to IC50 on rat amylin receptor (Assay VI)

Row | Ratio rCT/rAmylin binding | Binder
6 | 40.3 | B1
7 | 116 | B2
8 | 81.1 | B3
9 | 22.7 | B4
10 | 52.2 | K([γGlu-C20 diacid])CNTATCATQRLAEFLRHSSPNFGAIPSSTNVGPHTY-NH2 (disulfide 2-7, not restated for each compound)

target: T2, human calcitonin receptor; assay: ratio of IC50 on human calcitonin receptor (Assay VII) to IC50 on human amylin receptor (Assay V)
Description: The resulting pellet was resuspended, homogenized and centrifuged (20.000 rpm, 15 min) in a buffer containing 20 mM Na-HEPES and 0.1 mM EDTA (pH 7.4, buffer 2). The resulting pellet was resuspended in buffer 2 and protein concentration was measured (BCA protein Assay, Pierce). The homogenate was kept cold during the whole procedure. The membranes were kept at −80° C. until use. The assay was performed in a 384 well Optiplate (PerkinElmer) in a total volume of 40 ul. Membranes were mixed with SPA beads. Final concentration of membranes 35 ng/μL final and SPA beads was 0.05 mg/well. Test-compounds were dissolved in DMSO and further diluted in assay buffer (50 mM Hepes, pH 7.4, 1 mM CaCl2, 5 mM MgCl₂, 0.1% OA and 0.02% Tween20). […] The final mixture was incubated with shaking at 400 rpm for 120 min at 25° C. prior to centrifugation (1500 rpm, 10 min). Samples were analyzed on TopCounter™ (Packard). The IC₅₀ was calculated using (one site binding competition analysis) GraphPad Prism5 as a measure of receptor affinity.
Membranes were prepared in the following way; the cells were rinsed with PBS and incubated with Versene for approximately 5 min before harvesting. The cells were flushed with PBS and the cell-suspension was centrifuged for 5 min at 1000 rpm. Cells were homogenized (Ultrathurrax) in a buffer containing 20 mM Na-HEPES and 10 mM EDTA (pH 7.4) and centrifuged at 20.000 rpm for 15 min. The resulting pellet was resuspended, homogenized and centrifuged (20.000 rpm, 15 min) in a buffer containing 20 mM Na-HEPES and 0.1 mM EDTA (pH 7.4, buffer 2). The resulting pellet was resuspended in buffer 2 and protein concentration was measured (BCA protein Assay, Pierce). The homogenate was kept cold during the whole procedure. The membranes were kept at −80° C. until use. Assay was performed in a 384 well Optiplate (PerkinElmer) in a total volume of 40 ul. Membranes were mixed with SPA beads.

Row | Ratio hCT/hAmylin binding | Binder
11 | 59.4 | B1
12 | 151 | B2
13 | 28.5 | B3
14 | 26.4 | B4
15 | 21.2 | K([γGlu-C20 diacid])CNTATCATQRLAEFLRHSSPNFGAIPSSTNVGPHTY-NH2 (disulfide 2-7, not restated for each compound)

target: T3, rat amylin receptor (rat calcitonin …); assay: SPA competition binding, displacement of 125I-rat amylin from membranes of BHK tk'ts 13 cells transfected with rat calcitonin receptor + rat RAMP 3 (Assay VI)

Row | IC50 | Binder
16 | 1.17 nM | B1
17 | 0.504 nM | B2
18 | 1.06 nM | B3
19 | 1.16 nM | B4
20 | 0.104 nM | K([γGlu-C20 diacid])CNTATCATQRLAEFLRHSSPNFGAIPSSTNVGPHTY-NH2 (disulfide 2-7, not restated for each compound)
